In publication PMC3161976, “Transportin 3 Promotes a Nuclear Maturation Step Required for Efficient HIV-1 Integration” (PLoS Pathogens, 2011):

Target: RanQ69L-GTP (UniProt P62826 1-216, Q69L)
Test: pull-down; GST-Tnp3 or its deletion mutants held on glutathione-Sepharose 4B beads, with RanQ69L-GTP and G2 tRNA, equimolar tRNA and Tnp3; binding buffer 50 mM Hepes pH 7.3, 200 mM NaCl, 2 mM Mg(Ac)2, 10 µM GTP; 4°C; 15% SDS-PAGE and silver staining
Conditions: both partners purified

Binder | binding result
GST-Tnp3 (Transportin 3), full length (natural protein, also called GST-Tnp3 (FL); TRN-SR2; source: E. coli BL21(DE3), purified (glutathione-Sepharose beads, dialysis); not shown: GST, N-terminal, kept) MEGAKPTLQLVYQAVQALYHDPDPSGKERASFWLGELQRSVHAWEISDQLLQIRQDVESCYFAAQTMKMKIQTSFYELPTDSHASLRDSLLTHIQNLKDLSPVIVTQLALAIADLALQMPSWKGCVQTLVEKYSNDVTSLPFLLEILTVLPEEVHSRSLRIGANRRTEIIEDLAFYSSTVVSLLMTCVEKAGTDEKMLMKVFRCLGSWFNLGVLDSNFMANNKLLALLFEVLQQDKTSSNLHEAASDCVCSALYAIENVETNLPLAMQLFQGVLTLETAYHMAVAREDLDKVLNYCRIFTELCETFLEKIVCTPGQGLGDLRTLELLLICAGHPQYEVVEISFNFWYRLGEHLYKTNDEVIHGIFKAYIQRLLHALARHCQLEPDHEGVPEETDDFGEFRMRVSDLVKDLIFLIGSMECFAQLYSTLKEGNPPWEVTEAVLFIMAAIAKSVDPENNPTLVEVLEGVVRLPETVHTAVRYTSIELVGEMSEVVDRNPQFLDPVLGYLMKGLCEKPLASAAAKAIHNICSVCRDHMAQHFNGLLEIARSLDSFLLSPEAAVGLLKGTALVLARLPLDKITECLSELCSVQVMALKKLLSQEPSNGISSDPTVFLDRLAVIFRHTNPIVENGQTHPCQKVIQEIWPVLSETLNKHRADNRIVERCCRCLRFAVRCVGKGSAALLQPLVTQMVNVYHVHQHSCFLYLGSILVDEYGMEEGCRQGLLDMLQALCIPTFQLLEQQNGLQNHPDTVDDLFRLATRFIQRSPVTLLRSQVVIPILQWAIASTTLDHRDANCSVMRFLRDLIHTGVANDHEEDFELRKELIGQVMNQLGQQLVSQLLHTCCFCLPPYTLPDVAEVLWEIMQVDRPTFCRWLENSLKGLPKETTVGAVTVTHKQLTDFHKQVTSAEECKQVCWALRDFTRLFR | binds
GST-Tnp3 DC825 deletion mutant (domain or fragment, Transportin 3 (Tnp3), human, lacking the last C-terminal 98 residues; made by PCR from pGST-TRN-SR2 with the Tnp3 forward primer (from the start ATG) and the DC825 reverse primer, cloned into pGEX-2T; also called ΔC; C-term deleted Tnp3; source: E. coli BL21(DE3), purified (glutathione-Sepharose beads, Superdex 200 gel filtration); not shown: GST, N-terminal, kept) MEGAKPTLQLVYQAVQALYHDPDPSGKERASFWLGELQRSVHAWEISDQLLQIRQDVESCYFAAQTMKMKIQTSFYELPTDSHASLRDSLLTHIQNLKDLSPVIVTQLALAIADLALQMPSWKGCVQTLVEKYSNDVTSLPFLLEILTVLPEEVHSRSLRIGANRRTEIIEDLAFYSSTVVSLLMTCVEKAGTDEKMLMKVFRCLGSWFNLGVLDSNFMANNKLLALLFEVLQQDKTSSNLHEAASDCVCSALYAIENVETNLPLAMQLFQGVLTLETAYHMAVAREDLDKVLNYCRIFTELCETFLEKIVCTPGQGLGDLRTLELLLICAGHPQYEVVEISFNFWYRLGEHLYKTNDEVIHGIFKAYIQRLLHALARHCQLEPDHEGVPEETDDFGEFRMRVSDLVKDLIFLIGSMECFAQLYSTLKEGNPPWEVTEAVLFIMAAIAKSVDPENNPTLVEVLEGVVRLPETVHTAVRYTSIELVGEMSEVVDRNPQFLDPVLGYLMKGLCEKPLASAAAKAIHNICSVCRDHMAQHFNGLLEIARSLDSFLLSPEAAVGLLKGTALVLARLPLDKITECLSELCSVQVMALKKLLSQEPSNGISSDPTVFLDRLAVIFRHTNPIVENGQTHPCQKVIQEIWPVLSETLNKHRADNRIVERCCRCLRFAVRCVGKGSAALLQPLVTQMVNVYHVHQHSCFLYLGSILVDEYGMEEGCRQGLLDMLQALCIPTFQLLEQQNGLQNHPDTVDDLFRLATRFIQRSPVTLLRSQVVIPILQWAIASTTLDHRDANCSVMRFLRDLIHTGVANDHEEDFELRKELIGQV | binds
GST-Tnp3 DC880 deletion mutant (domain or fragment, Transportin 3 (Tnp3), human, C-terminal deletion mutant DC880; made by PCR from pGST-TRN-SR2 with the Tnp3 forward primer (from the start ATG) and the DC880 reverse primer, cloned into pGEX-2T; source: E. coli BL21(DE3), purified (glutathione-Sepharose beads, Superdex 200 gel filtration); not shown: GST, N-terminal, kept) MEGAKPTLQLVYQAVQALYHDPDPSGKERASFWLGELQRSVHAWEISDQLLQIRQDVESCYFAAQTMKMKIQTSFYELPTDSHASLRDSLLTHIQNLKDLSPVIVTQLALAIADLALQMPSWKGCVQTLVEKYSNDVTSLPFLLEILTVLPEEVHSRSLRIGANRRTEIIEDLAFYSSTVVSLLMTCVEKAGTDEKMLMKVFRCLGSWFNLGVLDSNFMANNKLLALLFEVLQQDKTSSNLHEAASDCVCSALYAIENVETNLPLAMQLFQGVLTLETAYHMAVAREDLDKVLNYCRIFTELCETFLEKIVCTPGQGLGDLRTLELLLICAGHPQYEVVEISFNFWYRLGEHLYKTNDEVIHGIFKAYIQRLLHALARHCQLEPDHEGVPEETDDFGEFRMRVSDLVKDLIFLIGSMECFAQLYSTLKEGNPPWEVTEAVLFIMAAIAKSVDPENNPTLVEVLEGVVRLPETVHTAVRYTSIELVGEMSEVVDRNPQFLDPVLGYLMKGLCEKPLASAAAKAIHNICSVCRDHMAQHFNGLLEIARSLDSFLLSPEAAVGLLKGTALVLARLPLDKITECLSELCSVQVMALKKLLSQEPSNGISSDPTVFLDRLAVIFRHTNPIVENGQTHPCQKVIQEIWPVLSETLNKHRADNRIVERCCRCLRFAVRCVGKGSAALLQPLVTQMVNVYHVHQHSCFLYLGSILVDEYGMEEGCRQGLLDMLQALCIPTFQLLEQQNGLQNHPDTVDDLFRLATRFIQRSPVTLLRSQVVIPILQWAIASTTLDHRDANCSVMRFLRDLIHTGVANDHEEDFELRKELIGQVMNQLGQQLVSQLLHTCCFCLPPYTLPDVAEVLWEIMQVDRPTFCRWLENSLKGLP | binds
